Source: paper PMC6625990, “Structural underpinnings of Ric8A function as a G-protein α-subunit chaperone and guanine-nucleotide exchange factor” (Nature Communications, 2019)

B1: bovine Ric8A1–492, Q5E9J8 F169R (protein)
chain: MEPRAVADALETGEEDVVMEALRAYNRENSQSFTFDDAQQEDRKRLAKLLVSVLEQGLPPSRRVIWLQSIRILSRDRSCLDSFTSRRSLQALACYAGISASQGSVPEPLNMDVVLESLKCLCNLVLSSPVAQALAAEAGLVVRLAERVGLCRQSSFPHDVQFFDLRLLRLLTALRTDVRQQLFQELQGVRLLTRALELTLGMTEGERHPELLPPQETERAMEILKVLFNITFDSIKREVDEEDAALYRHLGTLLRHCVMLAAAGDRTEELHGHAVNLLGNLPVKCLDVLLTLEPHEGSLEFLGVNMDVIRVLLSFMEKRLHQTHRLKESVAPVLSVLTECARMHRPARKFLKAQVLPPLRDVRTRPEVGELLRNKLVRLMTHLDTDVKRVAAEFLFVLCSESVPRFIKYTGYGNAAGLLAARGLMAGGRPEGQYSEDEDTDTDEYKEAKASINPVTGRVEEKPPNPMEGMTEEQKEHEAMKLVNMFDKLSRH
B2: bovine Ric8A1–492, Q5E9J8 A173W (protein)
chain: MEPRAVADALETGEEDVVMEALRAYNRENSQSFTFDDAQQEDRKRLAKLLVSVLEQGLPPSRRVIWLQSIRILSRDRSCLDSFTSRRSLQALACYAGISASQGSVPEPLNMDVVLESLKCLCNLVLSSPVAQALAAEAGLVVRLAERVGLCRQSSFPHDVQFFDLRLLFLLTWLRTDVRQQLFQELQGVRLLTRALELTLGMTEGERHPELLPPQETERAMEILKVLFNITFDSIKREVDEEDAALYRHLGTLLRHCVMLAAAGDRTEELHGHAVNLLGNLPVKCLDVLLTLEPHEGSLEFLGVNMDVIRVLLSFMEKRLHQTHRLKESVAPVLSVLTECARMHRPARKFLKAQVLPPLRDVRTRPEVGELLRNKLVRLMTHLDTDVKRVAAEFLFVLCSESVPRFIKYTGYGNAAGLLAARGLMAGGRPEGQYSEDEDTDTDEYKEAKASINPVTGRVEEKPPNPMEGMTEEQKEHEAMKLVNMFDKLSRH

Experiments:
[1] = molecular target: full-length Avi-tagged Gαt, P04695; assay: BLI (steady-state binding curve); details: chain shown with the change; Avi-tagged Gαt coupled to a streptavidin biosensor; parent: 24 nM
[2] = molecular target: full-length Avi-tagged Gαt, P04695; assay: BLI (steady-state); details: chain shown with the change

full-length Avi-tagged Gαt, P04695, sequence (P04695 whole entry): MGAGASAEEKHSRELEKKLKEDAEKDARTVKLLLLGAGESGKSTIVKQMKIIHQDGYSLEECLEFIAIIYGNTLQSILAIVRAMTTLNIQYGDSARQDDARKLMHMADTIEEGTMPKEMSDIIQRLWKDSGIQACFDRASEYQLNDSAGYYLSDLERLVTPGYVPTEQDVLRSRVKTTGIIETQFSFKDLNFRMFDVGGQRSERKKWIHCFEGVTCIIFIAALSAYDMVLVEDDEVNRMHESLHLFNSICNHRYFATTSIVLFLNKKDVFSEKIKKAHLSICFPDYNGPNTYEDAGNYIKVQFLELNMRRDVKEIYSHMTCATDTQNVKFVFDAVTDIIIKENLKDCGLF

Binder	Kd [1]	Kd [2]
B1	1700 nM	1800 nM
B2	> 10000 nM	> 10000 nM
